Data: the supplement of paper PMC9170038

Tested on: MS2 coat protein
Assay: apparent KD of MS2 coat protein; designed switch direction (-1 OFF switch, 1 ON switch): -1; higher = weaker reporter binding
How it was run: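 The reported apparent KD is a per-design median over clusters, from curve fits of normalised cluster fluorescence. Protein titrations used SNAP-549-labelled MS2 coat protein, doubled from 0.7 or 1.5 nM to 3 µM, in Tris-HCl pH 7.5 buffer with KCl, MgCl2, BSA, DTT, tRNA and Tween-20, with no input, 200 uM small-molecule ligand, or an oligonucleotide input. The RNA switches were transcribed on Illumina chips by stalled E. coli RNA polymerase.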

[1] = input ligand: microRNA oligo, concentration not stated
[2] = Eterna round: R95, input ligand: FMN 200 uM
[3] = Eterna round: R95, input ligand: microRNA oligo, concentration not stated
[4] = Eterna round: R95, input ligand: none

Sequence	apparent KD of MS2 coat protein (input ligand: FMN 200 uM) [nM]	apparent KD of MS2 coat protein [1] [nM]	apparent KD of MS2 coat protein (input ligand: none) [nM]	apparent KD of MS2 coat protein [2] [nM]	apparent KD of MS2 coat protein [3] [nM]	apparent KD of MS2 coat protein [4] [nM]
ACAUGUUGCGCAGGAUAUGAGACACAUGAGGAUCACCCAUGUGGCUACAUGUCAUACCAAGCGUCUCAGAAGGGUGUUAACAUG [Ex NG2 #35] (Eterna round: R96, puzzle: Exclusion NG 2)	23.5	20.5	28.4	–	–	–
CUGUGCACGCUGCGAUCCUACAUGAGGAUCACCCAUGUGGUCUGGUGGCGUGGGUCACCGGACUUGGCUCGUCUUGA [salish99_S_TOV1_R5_070] (Eterna round: R97, puzzle: Sensor, turn-off variant 1)	147	–	156	–	–	–
UUUUUGUGAGGAUAUGCGUAGUAGAACAAUAGUACUACUACGUAGAAGGCACAUGAGGAUCACCCAUGUUCCUC [Fiskers Ex 4 Super stable 44 mod 15] (Eterna round: R96, puzzle: Exclusion 4)	339	34.7	43.1	–	–	–
CCGAGCAGACGGAGAUCCAACAUGAGGAUCACCCAUGUCUCAAAAGCUUUUUGCUUGUCUUAUUCUCCUCUGUUCUC [Qureorxe] (puzzle: Sensor v3, turn-off variant 1)	–	–	–	12.5	29.2	11.3
CCGAAUAAGCAGGAUAUCGUAUCGGAAACGAUACGAGAAGGGCUAACAUGAGGAUCACCCAUGUUCCUUAACGG [Fiskers Ex 6 - 15] (puzzle: Exclusion 6)	–	–	–	–	19.2	–
GAUUAUGCGAGCUUUAGGGACAUGAGGAUCACCCAUGUUCGUCUUAUUAGUCUAGGUACGCUGACAUACCUAAAUCU [JMF 100] (puzzle: Sensor v3, turn-off variant 1)	–	–	–	21.8	32.9	21.6
UCAAGUAUGUAGGAUAUCGAUGUCGAAAGACAUCGAGAAGGACGUACAUGAGGAUCACCCAUGUAACUUGCAUG [Exclusion 6 - B - 10:f] (Eterna round: R96, puzzle: Exclusion 6)	159	112	220	–	–	–
GUUAAGUGAGGAUAUGGUGAGUAGUGCCUGAGCGCUGCUCACCAGAAGGCACAUGAGGAUCACCCAUGUAUAAC [Mat - Exclusion 4 - Mod of JL - D16] (puzzle: Exclusion 4)	–	–	–	–	19.9	–
CAUUAUGUUGAGGAUAUGCGCCGGCAAACUGACGCAGAAGGCGACACAUGAGGAUCACCCAUGUCAGUUCGCGA [salish99_ex6_r004_423] (Eterna round: R97, puzzle: Exclusion 6)	13.3	–	14.9	–	–	–
CAGUACUGAGGAUAUACAUGAGGAUCACCCAUGUUAGAGAUACUAGUGAGGUCGAUUAGUAGAAGGCAGUACUG [Mat X3R4 m24] (Eterna round: R97, puzzle: Exclusion 3)	557	–	44.9	–	–	–
CACCGUAACUGAGGAUAUCAAACAUGAGGAUCACCCAUGUAAUAAAUGAGAAUUUCGAAUGUACCUGAGAAGGCAGAAACCGGC [Ostricism 84 - Jieux - Exclusion NG 2] (Eterna round: R96, puzzle: Exclusion NG 2)	–	25.1	–	–	–	–
CCGUUCCGUGUAGGAUAUUGGCCCACCACGGGCCGAGAAGGACAUGAGGAUCACCCAUGUAUGCUAUUAUCGCGCGUGGCGCCC [Design 100] (Eterna round: R96, puzzle: Exclusion NG 1)	148	14.8	24.2	–	–	–
CAUUAUGUUGAGGAUAUGCACCAGCUCACUGACGCAGAAGGCGACACAUGAGGAUCACCCAUGUCAGUUCGCGA [salish99_ex6_r004_428] (Eterna round: R97, puzzle: Exclusion 6)	16.1	–	14.6	–	–	–
UCGGCGCGAGGAUAUACGUUUGCGCGUUUUCGUUUUCGCGUACAUGAGGAUCACCCAUGUAGAAGGCGCGCCGC [Apr-15 SS2-15] (puzzle: Exclusion 2)	–	–	–	–	14	–
CGCUAGUCAGGAUAUACGAACAUGUCAAAAGACGUGAAGGGACAUGAGGAUCACCCAUGUAGAAGGGACUAGCG [salish99_ex2_r3_012] (puzzle: Exclusion 2)	–	–	–	152	20	28.5
UUGUUACAUGAGGAUCACCCAUGUGAGGAUAUGGUUCAGUAAUGUAAUGUAAAGUAAUCCAGAAGGCACAUGUU [1st #26] (Eterna round: R97, puzzle: Exclusion 1)	1290	–	756	–	–	–

Sequence	apparent KD of MS2 coat protein (input ligand: FMN 200 uM) [nM]	apparent KD of MS2 coat protein [1] [nM]	apparent KD of MS2 coat protein (input ligand: none) [nM]	apparent KD of MS2 coat protein [2] [nM]	apparent KD of MS2 coat protein [3] [nM]	apparent KD of MS2 coat protein [4] [nM]
UUAAUUAAUUUAUUAGAUCCUCACAUGAGGAUCACCCAUGUGCAGGAUAUCAGCUCGAUUAGAGCUGAGAAGGGCACUAUAAAU [ExNG3/10-B1] (Eterna round: R96, puzzle: Exclusion NG 3)	65	56.4	62.2	–	–	–
GCACGGAGUGUAGGAUAUUAGUGCGAUUAGCACUGAGAAGGACAUGAGGAUCACCCAUGUUCCUCAAUAAUUAACCUUCCGUGC [Eli exng1 - 039] (Eterna round: R96, puzzle: Exclusion NG 1)	16.7	8.49	12.9	–	–	–
ACAUGUGUUGUAGGAUAUAGGAUACAUGAGGAUCACCCAUGUGGAUUCAUGUCUAUGGAAACGUCCUAGAAGGACGACAACAUG [Ex NG2 #21] (Eterna round: R96, puzzle: Exclusion NG 2)	120	56	90.5	–	–	–
UUUUUGUCAGGAUAUGAGUCGUAGAACAAUAGUACUACGUCUCAGAAGGGACAUGAGGAUCACCCAUGUGCCUC [Fiskers Ex 4 Super Stable 44 mod 28] (puzzle: Exclusion 4)	–	–	–	–	26.2	–
UUUUUGUGAGGAUAUGCGUAGUAGAACAAUAGUACUACUACGUAGAAGGCACAUGAGGAUCACCCAUGUUCCUC [Fiskers Ex 4 Super stable 44 mod 15] (puzzle: Exclusion 4)	–	–	–	–	36.4	–
AGUGUGUGGCAGGAUAUUCUAAUCGUGAGGAGGGAAGAAGGGUCUACAUGAGGAUCACCCAUGUAAGCGGUUGA [Ex6 #42] (Eterna round: R97, puzzle: Exclusion 6)	259	–	140	–	–	–
CCACGUCCGUACGUGUACUUGUCUCCUGAGAGCACGGGCACAUGAGGAUCACCCAUGUUUUUGCUCGUCUUAUGAGC [JR_Sensorv2_tov2_Sub716] (Eterna round: R96, puzzle: Sensor v2, turn-off variant 2)	13.8	25.4	17.7	–	–	–
AAUAACAAGUGAGAUCCUAACAUGAGGAUCACCCAUGUGCUCGUCUUAUAAAGUACUAUCACGAAAGUGAUAGUACA [Sensor 3, v1 - 54] (puzzle: Sensor v3, turn-off variant 1)	–	–	–	117	7.29	70.6
AGCCUACAUGAGGAUCACCCAUGUCAGGAUAUCUCGCGGCGUGUCAAGUUCACACUGCAGAGAAGGGACUCGGG [Edsoriri] (puzzle: Exclusion 1)	–	–	–	–	51.4	–
UUUUUAUAAGGAUAUAUGUGGAUAAUUUUUAUAUGAAAAUUACAUGAGGAUCACCCAUGUAGAAGGUAUGGAGG [-13.9, -11.8 kcal, 35% A] (Eterna round: R97, puzzle: Exclusion 2)	24	–	39.2	–	–	–
AGUUGGCGAGGAUAUACAUGAGGAUCACCCAUGUGAAUAAUAAUAGUGAGGAAGAAAAGUAGAAGGCGCUGACA [Mat - Exclusion 3 - Mod of Salish D35] (puzzle: Exclusion 3)	–	–	–	–	46.1	–
GUUAAACAUGAGGAUCACCCAUGUAAGGAUAUGCUGAGGUCGCGCUGACGUGACUGAAGCAGAAGGUACAAAUG [Mat - Mod of JL D62] (puzzle: Exclusion 1)	–	–	–	85.4	48.7	73.9
GAAAAGGUAGGAUAUACGAAAAAAAAGGGUAGAAAAUAAACACAUGAGGAUCACCCAUGUAGAAGGACCAAAAG [salish99_ex2_r3_075] (puzzle: Exclusion 2)	–	–	–	92	25.3	25.7
UACAUGAGGAUCACCCAUGUUUUGUCGUGUAUGGUAUUUAUCUAGGAUAUCAAUCUAUGUAUUUAUGAGAAGGAGAAUAUUAAU [JMF's solution 51] (Eterna round: R96, puzzle: Exclusion NG 3)	–	31	–	–	–	–
CCCGUGUUAGGAUAUACGGCACACCCACAAACGGGUAUAUAGUAGAAGGAACAUGAGGAUCACCCAUGUAAAAC [Qubexeer] (puzzle: Exclusion 4)	–	–	–	–	18.5	–
GGAUUCCAGUGAGGAUAUCCAAAUAAAAGCCAUGGAGAAGGCACAUGAGGAUCACCCAUGUAGGGCAAUAACAGCGAACGCUGC [Erenlege] (Eterna round: R96, puzzle: Exclusion NG 1)	73	43.3	30.8	–	–	–
